Tested on: proteins that co-immunoprecipitated with DUX4-CTD constructs expressed in MB135 myoblasts
Assay: LC-MS of proteins co-immunoprecipitated with DUX4-CTD (Table 1) and western validation
Type: binding, human
Parameters: key to 4. mL1dL2 + Dox + IFNG / 4. + IFNG mix / 4. longCTD + Dox + IFNG / 3. + IFNg + Dox longCTD / 3. + Dox longCTD / 3. + IFNG longCTD: peptide-spectrum matches (PSMs) per protein
Settings: kind of count not given; for 4. mL1dL2 + Dox + IFNG: LC-MS value per protein co-immunoprecipitated with DUX4-CTD construct mL1dL2 in MB135 myoblasts; for 4. + IFNG mix: LC-MS value per protein co-immunoprecipitated from MB135 myoblasts, + IFNG mix sample (no Dox)
Procedure, shortened: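 FLAG-tagged DUX4-CTD expressed in doxycycline-induced MB135 myoblasts, some also IFNG-treated; nuclear lysates in pH 7.4 NP-40 IP buffer were pre-cleared, then anti-FLAG immunoprecipitated 3 h at 4 °C. For LC-MS, FLAG-peptide elution, in-gel trypsin digest, Orbitrap analysis; proteins with ≥2 PSMs in both experiments categorised and ranked by total PSMs.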

Row | Molecule | 4. mL1dL2 + Dox + IFNG | 4. + IFNG mix
1 | S100A9 (protein) MTCKMSQLERNIETIINTFHQYSVKLGHPDTLNQGEFKELVRKDLQNFLKKENKNEKVIEHIMEDLDTNADKQLSFEEFIMLMARLTWASHEKMHEGDEGPGHHHKPGLGEGTP | 2 | –
2 | AP2A1 (protein) MPAVSKGDGMRGLAVFISDIRNCKSKEAEIKRINKELANIRSKFKGDKALDGYSKKKYVCKLLFIFLLGHDIDFGHMEAVNLLSSNKYTEKQIGYLFISVLVNSNSELIRLINNAIKNDLASRNPTFMCLALHCIANVGSREMGEAFAADIPRILVAGDSMDSVKQSAALCLLRLYKASPDLVPMGEWTARVVHLLNDQHMGVVTAAVSLITCLCKKNPDDFKTCVSLAVSRLSRIVSSASTDLQDYTYYFVPAPWLSVKLLRLLQCYPPPEDAAVKGRLVECLETVLNKAQEPPKSKKVQHSNAKNAILFETISLIIHYDSEPNLLVRACNQLGQFLQHRETNLRYLALESMCTLASSEFSHEAVKTHIDTVINALKTERDVSVRQRAADLLYAMCDRSNAKQIVSEMLRYLETADYAIREEIVLKVAILAEKYAVDYSWYVDTILNLIRIAGDYVSEEVWYRVLQIVTNRDDVQGYAAKTVFEALQAPACHENMVKVGGYILGEFGNLIAGDPRSSPPVQFSLLHSKFHLCSVATRALLLSTYIKFINLFPETKATIQGVLRAGSQLRNADVELQQRAVEYLTLSSVASTDVLATVLEEMPPFPERESSILAKLKRKKGPGAGSALDDGRRDPSSNDINGGMEPTPSTVSTPSPSADLLGLRAAPPPAAPPASAGAGNLLVDVFDGPAAQPSLGPTPEEAFLSELEPPAPESPMALLADPAPAADPGPEDIGPPIPEADELLNKFVCKNNGVLFENQLLQIGVKSEFRQNLGRMYLFYGNKTSVQFQNFSPTVVHPGDLQTQLAVQTKRVAAQVDGGAQVQQVLNIECLRDFLTPPLLSVRFRYGGAPQALTLKLPVTINKFFQPTEMAAQDFFQRWKQLSLPQQEAQKIFKANHPMDAEVTKAKLLGFGSALLDNVDPNPENFVGAGIIQTKALQVGCLLRLEPNAQAQMYRLTLRTSKEPVSRHLCELLAQQF | 5 | –
3 | HAT1 (protein) AGFGAMEKFLVEYKSAVEKKLAEYKCNTNTAIELKLVRFPEDLENDIRTFFPEYTHQLFGDDETAFGYKGLKILLYYIAGSLSTMFRVEYASKVDENFDCVEADDVEGKIRQIIPPGFCTNTNDFLSLLEKEVDFKPFGTLLHTYSVLSPTGGENFTFQIYKADMTCRGFREYHERLQTFLMWFIETASFIDVDDERWHYFLVFEKYNKDGATLFATVGYMTVYNYYVYPDKTRPRVSQMLILTPFQGQGHGAQLLETVHRYYTEFPTVLDITAEDPSKSYVKLRDFVLVKLCQDLPCFSREKLMQGFNEDMVIEAQQKFKINKQHARRVYEILRLLVTDMSDAEQYRSYRLDIKRRLISPYKKKQRDLAKMRKCLRPEELTNQMNQIEISMQHEQLEESFQELVEDYRRVIERLAQE | 10 | 1
4 | RPN1 (protein) ASSEAPPLINEDVKRTVDLSSHLAKVTAEVVLAHLGGGSTSRATSFLLALEPELEARLAHLGVQVKGEDEEENNLEVRETKIKGKSGRFFTVKLPVALDPGAKISVIVETVYTHVLHPYPTQITQSEKQFVVFEGNHYFYSPYPTKTQTMRVKLASRNVESYTKLGNPTRSEDLLDYGPFRDVPAYSQDTFKVHYENNSPFLTITSMTRVIEVSHWGNIAVEENVDLKHTGAVLKGPFSRYDYQRQPDSGISSIRSFKTILPAAAQDVYYRDEIGNVSTSHLLILDDSVEMEIRPRFPLFGGWKTHYIVGYNLPSYEYLYNLGDQYALKMRFVDHVFDEQVIDSLTVKIILPEGAKNIEIDSPYEISRAPDELHYTYLDTFGRPVIVAYKKNLVEQHIQDIVVHYTFNKVLMLQEPLLVVAAFYILFFTVIIYVRLDFSITKDPAAEARMKVACITEQVLTLVNKRIGLYRHFDETVNRYKQSRDISTLNSGKKSLETEHKALTSEIALLQSRLKTEGSDLCDRVSEMQKLDAQVKELVLKSAVEAERLVAGKLKKDTYIENEKLISGKRQELVTKIDHILDAL | 7 | 2
5 | AP2B1 (protein) TDSKYFTTNKKGEIFELKAELNNEKKEKRKEAVKKVIAAMTVGKDVSSLFPDVVNCMQTDNLELKKLVYLYLMNYAKSQPDMAIMAVNSFVKDCEDPNPLIRALAVRTMGCIRVDKITEYLCEPLRKCLKDEDPYVRKTAAVCVAKLHDINAQMVEDQGFLDSLRDLIADSNPMVVANAVAALSEISESHPNSNLLDLNPQNINKLLTALNECTEWGQIFILDCLSNYNPKDDREAQSICERVTPRLSHANSAVVLSAVKVLMKFLELLPKDSDYYNMLLKKLAPPLVTLLSGEPEVQYVALRNINLIVQKRPEILKQEIKVFFVKYNDPIYVKLEKLDIMIRLASQANIAQVLAELKEYATEVDVDFVRKAVRAIGRCAIKVEQSAERCVSTLLDLIQTKVNYVVQEAIVVIRDIFRKYPNKYESIIATLCENLDSLDEPDARAAMIWIVGEYAERIDNADELLESFLEGFHDESTQVQLTLLTAIVKLFLKKPSETQELVQQVLSLATQDSDNPDLRDRGYIYWRLLSTDPVTAKEVVLSEKPLISEETDLIEPTLLDELICHIGSLASVYHKPPNAFVEGSHGIHRKHLPIHHGSTDAGDSPVGTTTATNLEQPQVIPSQGDLLGDLLNLDLGPPVNVPQVSSMQMGAVDLLGGGLDSLVGQSFIPSSVPATFAPSPTPAVVSSGLNDLFELSTGIGMAPGGYVAPKAVWLPAVKAKGLEISGTFTHRQGHIYMEMNFTNKALQHMTDFAIQFNKNSFGVIPSTPLAIHTPLMPNQSIDVSLPLNTLGPVMKMEPLNNLQVAVKNNIDVFYFSCLIPLNVLFVEDGKMERQVFLATWKDIPNENELQFQIKECHLNADTVSSKLQNNNVYTIAKRNVEGQDMLYQSLKLTNGIWILAELRIQPGNPNYTLSLKCRAPEVSQYIYQVYDSILKN | 1 | –
6 | RTN4 (protein) MEDLDQSPLVSSSDSPPRPQPAFKYQFVREPEDEEEEEEEEEEDEDEDLEELEVLERKPAAGLSAAPVPTAPAAGAPLMDFGNDFVPPAPRGPLPAAPPVAPERQPSWDPSPVSSTVPAPSPLSAAAVSPSKLPEDDEPPARPPPPPPASVSPQAEPVWTPPAPAPAAPPSTPAAPKRRGSSGSVDETLFALPAASEPVIRSSAENMDLKEQPGNTISAGQEDFPSVLLETAASLPSLSPLSAASFKEHEYLGNLSTVLPTEGTLQENVSEASKEVSEKAKTLLIDRDLTEFSELEYSEMGSSFSVSPKAESAVIVANPREEIIVKNKDEEEKLVSNNILHNQQELPTALTKLVKEDEVVSSEKAKDSFNEKRVAVEAPMREEYADFKPFERVWEVKDSKEDSDMLAAGGKIESNLESKVDKKCFADSLEQTNHEKDSESSNDDTSFPSTPEGIKDRSGAYITCAPFNPAATESIATNIFPLLGDPTSENKTDEKKIEEKKAQIVTEKNTSTKTSNPFLVAAQDSETDYVTTDNLTKVTEEVVANMPEGLTPDLVQEACESELNEVTGTKIAYETKMDLVQTSEVMQESLYPAAQLCPSFEESEATPSPVLPDIVMEAPLNSAVPSAGASVIQPSSSPLEASSVNYESIKHEPENPPPYEEAMSVSLKKVSGIKEEIKEPENINAALQETEAPYISIACDLIKETKLSAEPAPDFSDYSEMAKVEQPVPDHSELVEDSSPDSEPVDLFSDDSIPDVPQKQDETVMLVKESLTETSFESMIEYENKEKLSALPPEGGKPYLESFKLSLDNTKDTLLPDEVSTLSKKEKIPLQMEELSTAVYSNDDLFISKEAQIRETETFSDSSPIEIIDEFPTLISSKTDSFSKLAREYTDLEVSHKSEIANAPDGAGSLPCTELPHDLSLKNIQPKVEEKISFSDDFSKNGSATSKVLLLPPDVSALATQAEIESIVKPKVLVKEAEKKLPSDTEKEDRSPSAIFSAELSKTSVVDLLYWRDIKKTGVVFGASLFLLLSLTVFSIVSVTAYIALALLSVTISFRIYKGVIQAIQKSDEGHPFRAYLESEVAISEELVQKYSNSALGHVNCTIKELRRLFLVDDLVDSLKFAVLMWVFTYVGALFNGLTLLILALISLFSVPVIYERHQAQIDHYLGLANKNVKDAMAKIQAKIPGLKRKAE | 5 | 5
7 | PHGDH (protein) AFANLRKVLISDSLDPCCRKILQDGGLQVVEKQNLSKEELIAELQDCEGLIVRSATKVTADVINAAEKLQVVGRAGTGVDNVDLEAATRKGILVMNTPNGNSLSAAELTCGMIMCLARQIPQATASMKDGKWERKKFMGTELNGKTLGILGLGRIGREVATRMQSFGMKTIGYDPIISPEVSASFGVQQLPLEEIWPLCDFITVHTPLLPSTTGLLNDNTFAQCKKGVRVVNCARGGIVDEGALLRALQSGQCAGAALDVFTEEPPRDRALVDHENVISCPHLGASTKEAQSRCGEEIAVQFVDMVKGKSLTGVVNAQALTSAFSPHTKPWIGLAEALGTLMRAWAGSPKGTIQVITQGTSLKNAGNCLSPAVIVGLLKEASKQADVNLVNAKLLVKEAGLNVTTSHSPAAPGEQGFGECLLAVALAGAPYQAVGLVQGTTPVLQGLNGAVFRPEVPLRRDLPLLLFRTQTSDPAMLPTMIGLLAEAGVRLLSYQTSLVSDGETWHVMGISSLLPSLEAWKQHVTEAFQFHF | 1 | –
8 | P4HA1 (protein) HPGFFTSIGQMTDLIHTEKDLVTSLKDYIKAEEDKLEQIKKWAEKLDRLTSTATKDPEGFVGHPVNAFKLMKRLNTEWSELENLVLKDMSDGFISNLTIQRQYFPNDEDQVGAAKALLRLQDTYNLDTDTISKGNLPGVKHKSFLTAEDCFELGKVAYTEADYYHTELWMEQALRQLDEGEISTIDKVSVLDYLSYAVYQQGDLDKALLLTKKLLELDPEHQRANGNLKYFEYIMAKEKDVNKSASDDQSDQKTTPKKKGVAVDYLPERQKYEMLCRGEGIKMTPRRQKKLFCRYHDGNRNPKFILAPAKQEDEWDKPRIIRFHDIISDAEIEIVKDLAKPRLRRATISNPITGDLETVHYRISKSAWLSGYENPVVSRINMRIQDLTGLDVSTAEELQVANYGVGGQYEPHFDFARKDEPDAFKELGTGNRIATWLFYMSDVSAGGATVFPEVGASVWPKKGTAVFWYNLFASGEGDYSTRHAACPVLVGNKWVSNKWLHERGQEFRRPCTLSELE | 27 | 1
9 | PRSS2 (protein) IVGGYICEENSVPYQVSLNSGYHFCGGSLISEQWVVSAGHCYKSAINSKLSGRGCEYHRIQVRLGEHNIEVLEGNEQFINAAKIIRHPKYNSRTLDNDILLIKLSSPAVINSRVSAISLPTAPPAAGTESLISGWGNTLSSGADYPDELQCLDAPVLSQAECEASYPGKITNNMFCVGFLEGGKDSCQGDSGGPVVSNGELQGIVSWGYGCAQKNRPGVYTKVYNYVDWIKDTIAANS | 1 | –

From patent publication US20250339531A1, “DUX4 POLYPEPTIDES AND NUCLEIC ACIDS FOR TREATING INFLAMMATORY AND AUTOIMMUNE CONDITIONS” (Fred Hutchinson Cancer Center, priority 2021, published 2025)
